Data reported in paper PMC4003248 (The Journal of Cell Biology, 2014).

Key:
[1] = biological target: RILP (Rab7-interacting lysosomal protein) 1-185 (UniProt Q96NA2); assay: GST-RILP 1-185 pull-down from cell lysate; details: reference: GFP-LIC1 wild type; sites T213
[2] = biological target: adenovirus serotype 5 hexon capsid subunit (Ad5 (adenovirus serotype 5), UniProt P04133 1-952); assay: pull-down
adenovirus serotype 5 hexon capsid subunit, sequence (P04133 whole entry): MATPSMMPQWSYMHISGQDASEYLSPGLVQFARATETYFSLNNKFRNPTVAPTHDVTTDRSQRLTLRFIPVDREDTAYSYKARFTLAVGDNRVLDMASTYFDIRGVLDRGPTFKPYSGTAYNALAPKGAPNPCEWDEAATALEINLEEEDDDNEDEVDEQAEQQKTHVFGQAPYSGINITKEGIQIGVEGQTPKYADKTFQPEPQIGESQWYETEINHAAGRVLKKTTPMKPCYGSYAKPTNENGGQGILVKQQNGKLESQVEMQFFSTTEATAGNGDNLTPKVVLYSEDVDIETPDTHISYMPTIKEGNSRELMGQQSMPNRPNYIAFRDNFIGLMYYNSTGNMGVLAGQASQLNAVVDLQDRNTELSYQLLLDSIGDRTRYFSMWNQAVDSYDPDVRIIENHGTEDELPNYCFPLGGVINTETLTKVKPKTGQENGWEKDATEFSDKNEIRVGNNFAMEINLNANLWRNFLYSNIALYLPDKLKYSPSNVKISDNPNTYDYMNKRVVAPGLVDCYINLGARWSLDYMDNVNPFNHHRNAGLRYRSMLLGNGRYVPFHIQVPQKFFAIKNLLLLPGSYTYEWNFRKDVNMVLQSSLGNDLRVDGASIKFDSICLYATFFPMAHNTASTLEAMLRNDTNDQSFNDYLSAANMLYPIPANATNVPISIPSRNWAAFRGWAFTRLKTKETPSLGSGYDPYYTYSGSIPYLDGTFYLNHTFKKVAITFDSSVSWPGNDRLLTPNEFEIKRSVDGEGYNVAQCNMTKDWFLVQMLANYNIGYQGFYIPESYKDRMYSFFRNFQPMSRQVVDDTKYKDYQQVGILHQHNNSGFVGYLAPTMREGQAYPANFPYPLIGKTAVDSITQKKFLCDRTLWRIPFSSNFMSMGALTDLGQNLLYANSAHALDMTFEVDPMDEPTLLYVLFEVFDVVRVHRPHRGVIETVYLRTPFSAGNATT

“dynein light intermediate chain 1 (LIC1) (from UniProt Q9QXU8) GFP-LIC1-T213A” was tested, and the “binding against the reference” value [1] was “stronger”.

B1: bacterially expressed LIC1-T213D (natural protein, rat, UniProt Q9QXU8 1-523, looked up)
chain: MAAVGRVGSFGSSPPGLASTYASGPLANELASGSGGPAAGDDEDGQNLWSRILREVSTRSRSKLPTGKNVLLLGEDGAGKTSLIRRIQGIEEYKKGRGLEYLYLNVHDEDRDDQTRCNVWILDGDLYHKGLLKFSLDALSLRDTLVMLVVDMSKPWTALDSLQKWASVVREHVDKLKIPPEEMKEMEQKLIRDFQEYVEPGEDFPASPQRRADAAQEDRDDSVVLPLGADTLTHNLGLPVLVVCTKCDAISVLEKEHDYRDEHFDFIQSHIRKFCLQYGAALIYTSVKENKNIDLVYKYIVQKLYGFPYKIPAVVVEKDAVFIPAGWDNDKKIGILHENFQTLKIEDNFEDIITKPPVRKFVHEKEIMAEDDQVFLMKLQSLLAKQPPTAAGRPVDASPRVPGGSPRTPNRSVSSNVASVSPIPAGSKKIDPNMKAGATSEGVLANFFNSLLSKKTGSPGGPGVGGSPGGGAAGASTSLPPSAKKSGQKPVLSDVHAELDRITRKPASVSPTTPPSPTEGEAS
B1: binds [2].

B2: bacterially expressed full-length LIC1 phosphorylated with PKA catalytic subunit (natural protein, rat, UniProt Q9QXU8 1-523, looked up)
chain: MAAVGRVGSFGSSPPGLASTYASGPLANELASGSGGPAAGDDEDGQNLWSRILREVSTRSRSKLPTGKNVLLLGEDGAGKTSLIRRIQGIEEYKKGRGLEYLYLNVHDEDRDDQTRCNVWILDGDLYHKGLLKFSLDALSLRDTLVMLVVDMSKPWTALDSLQKWASVVREHVDKLKIPPEEMKEMEQKLIRDFQEYVEPGEDFPASPQRRATAAQEDRDDSVVLPLGADTLTHNLGLPVLVVCTKCDAISVLEKEHDYRDEHFDFIQSHIRKFCLQYGAALIYTSVKENKNIDLVYKYIVQKLYGFPYKIPAVVVEKDAVFIPAGWDNDKKIGILHENFQTLKIEDNFEDIITKPPVRKFVHEKEIMAEDDQVFLMKLQSLLAKQPPTAAGRPVDASPRVPGGSPRTPNRSVSSNVASVSPIPAGSKKIDPNMKAGATSEGVLANFFNSLLSKKTGSPGGPGVGGSPGGGAAGASTSLPPSAKKSGQKPVLSDVHAELDRITRKPASVSPTTPPSPTEGEAS
modifications: phosphorylated by PKA; T213 identified as the major PKA site
B2: binds [2].

B3: bacterially expressed full-length IC1A phosphorylated with PKA catalytic subunit (natural protein, rat, UniProt Q63100 1-643, looked up)
chain: MSDKSDLKAELERKKQRLAQIREEKKRKEEERKKKEADMQQKKEPVPDDSDLDRKRRETEALLQSIGISPEPPLVQPLHFLTWDTCYFHYLVPTPMSPSSKSVSTPSEAGSQDDLGPLTRTLQWDTDPSVLQLQSDSELGRRLNKLGVSKVTQVDFLPREVVSYSKETQTPLATHQSEEDEEDEEMVEPKVGHDSELENQDKKQETKEAPPRELTEEEKQQILHSEEFLIFFDRTIRVIERALAEDSDIFFDYSGRELEEKDGDVQAGANLSFNRQFYDEHWSKHRVVTCMDWSLQYPELMVASYSNNEDAPHEPDGVALVWNMKFKKTTPEYVFHCQSSVMSVCFARFHPNLVVGGTYSGQIVLWDNRSHRRTPVQRTPLSAAAHTHPVYCVNVVGTQNAHNLITVSTDGKMCSWSLDMLSTPQESMELVYNKSKPVAVTGMAFPTGDVNNFVVGSEEGTVYTACRHGSKAGIGEVFEGHQGPVTGINCHMAVGPIDFSHLFVTSSFDWTVKLWTTKHNKPLYSFEDNADYVYDVMWSPVHPALFACVDGMGRLDLWNLNSDTEVPTASVAIEGAYALNRVRWAQGGKEVAVGDSEGRIWIYDVGELAVPHNDEWTRFARTLVEIRANRADSEEEGAVELAA
modifications: phosphorylated by PKA (the paper names IC1-T59 as the sole PKA site)
B3: binds [2].
